Article PMC4558368

Target: Extracellular region of FcγRIIIa (residues 19-193, V158 allotype) (UniProt P08637)
Assay: SPR

Kd [µM]	Substance
> 50	Human IgG1 Fc D265A (glycosylated variant) (domain or fragment)
> 50	Human IgG1 Fc T299A (aglycosylated variant) (domain or fragment)
